Data as given in US20050112555A1, “Cytidine deaminase activators, deoxycytidine deaminase activators, Vif antagonists, and methods of screening for molecules thereof” (priority 2003, published 2005).
Where two headings read alike, the source gives them in different places.

Tests used:
[1] = tested on: reporter apoB mRNA site C6666; test: Poisoned primer extension editing assay of reporter apoB mRNA in yeast
[2] = tested on: HIV-1 Gag-Pol mRNA (GP-RNA region); test: Northern blot of viral Gag-Pol poly A+ RNA abundance in 293T cells; assay type: cell-based; conditions: ΔVif vs Vif+ provirus, 293T-CEM15
[3] = tested on: vif− HIV-1 particles; assay type: cell-based
[4] = tested on: HIV-1 GP-RNA; test: UV crosslinking RNA binding assay, HIV-1 GP-RNA; conditions: recombinant CEM15 1, 2 and 4 μg; 20 fmol radiolabeled GP-RNA
[5] = tested on: pseudotyped HIV-1 viral particles; assay type: cell-based; conditions: vs control 293T cells with pIRES-P vector
[6] = tested on: HIV-1 p24 and RT protein; test: Western blot of HIV-1 proteins in proviral-transfected 293T cell lysates; assay type: cell-based; conditions: ΔVif proviral DNA, 72 h, vs control pIRES-P cells
[7] = tested on: apoB RNA; test: UV crosslinking RNA binding assay, apoB RNA; conditions: recombinant CEM15; 20 fmol radiolabeled apoB RNA
[8] = overexpressed in yeast, late log phase growth with galactose feeding

B1: Cdd1: tetrameric cytidine deaminase from S. cerevisiae with RNA editing activity (protein, UniProt Q06549 1-142, looked up)
Cytidine deaminase: MKVGGIEDRQLEALKRAALKACELSYSPYSHFRVGCSILTNNDVIFTGANVENASYSNCICAERSAMIQVLMAGHRSGWKCMVICGDSEDQCVSPCGVCRQFINEFVVKDFPIVMLNSTGSRSKVMTMGELLPMAFGPSHLN
C to U editing of reporter apoB mRNA at site C6666 [1, 8]: 6.7% | editing level relative to negative control (empty vector) [1, 8]: ~10 ×

B2: CEM15: human cytidine deaminase (APOBEC-3G) that reduces retroviral infectivity; HA-tagged, stably expressed in 293T cells or recombinant (protein)
chain: MKPHFRNTVERMYRDTFSYNFYNRPILSRRNTVWLCYEVKTKGPSRPPLDAKIFRGQVYSELKYHPEMRFFHWFSKWRKLHRDQEYEVTWYISWSPCTKCTRDMATFLAEDPKVTLTIFVARLYYFWDPDYQEALRSLCQKRDGPRATMKIMNYDEFQHCWSKFVYSQRELFEPWNNLPKYYILLHIMLGEILRHSMDPPTFTFNFNNEPWVRGRHETYLCYEVERMHNDTWVLLNQRRGFLCNQAPHKHGFLEGRHAELCFLDVIPFWKLDLDQDYRVTCFTSWSPCFSCAQEMAKFISKNKHVSLCIFTARIYDDQGRCQEGLRTLAEAGAKISIMTYSEFKHCWDTFVDHQGCPFQPWDGLDEHSQDLSGRLRAILQNQEN
modifications: left off: small tags and cut ends
notes: human cytidine deaminase (APOBEC-3G) that reduces retroviral infectivity; HA-tagged, stably expressed in 293T cells or recombinant
depletion of viral RNA levels ([2]; 24 h post-transfection): 2 fold | depletion of viral RNA levels ([2]; 48 h post-transfection): 9 fold | depletion of viral RNA levels ([2]; 72 h post-transfection): 56 fold | GFP expression from vif−, CEM15+ particles [3]: indistinguishable from background fluorescence in control cells | decrease in Vif− viral infectivity [3]: ≥ 100 fold | RNA binding (UV crosslinking) [4]: bound to radiolabeled HIV-1 GP-RNA in concentration dependent manner | reduction of viral particle production ([5]; Vif+ provirus): 5 fold | reduction of viral particle production ([5]; ΔVif provirus (absence of Vif)): 100 fold | HIV-1 p24 and RT protein abundance [6]: marked reduction | RNA binding (UV crosslinking), yield of complexes compared with GP-RNA [7]: the yield of complexes was similar

B3: CDA from E. coli: dimeric cytidine deaminase from E. coli, equivalent to PDB entry 1AF2 (protein, UniProt P0ABF6 1-294, looked up)
Cytidine deaminase: MHPRFQTAFAQLADNLQSALEPILADKYFPALLTGEQVSSLKSATGLDEDALAFALLPLAAACARTPLSNFNVGAIARGVSGTWYFGANMEFIGATMQQTVHAEQSAISHAWLSGEKALAAITVNYTPCGHCRQFMNELNSGLDLRIHLPGREAHALRDYLPDAFGPKDLEIKTLLMDEQDHGYALTGDALSQAAIAAANRSHMPYSKSPSGVALECKDGRIFSGSYAENAAFNPTLPPLQGALILLNLKGYDYPDIQRAVLAEKADAPLIQWDATSATLKALGCHSIDRVLLA
editing activity on reporter apoB mRNA (in words) ([1]; expressed in yeast): incapable of editing on the reporter substrate
